Assay results published in paper PMC5025857, “Redox-dependent Regulation of Gluconeogenesis by a Novel Mechanism Mediated by a Peroxidatic Cysteine of Peroxiredoxin” (Scientific Reports, 2016).

B1: Tsa1 (wild type) [S. cerevisiae] / HA-tagged Pyk1 (HA-Pyk1) [S. cerevisiae] (parent)
chain 1: MVAQVQKQAPTFKKTAVVDGVFDEVSLDKYKGKYVVLAFIPLAFTFVCPTEIIAFSEAAKKFEEQGAQVLFASTDSEYSLLAWTNIPRKEGGLGPINIPLLADTNHSLSRDYGVLIEEEGVALRGLFIIDPKGVIRHITINDLPVGRNVDEALRLVEAFQWTDKNGTVLPCNWTPGAATIKPTVEDSKEYFEAANK
chain 2: MSRLERLTSLNVVAGSDLRRTSIIGTIGPKTNNPETLVALRKAGLNIVRMNFSHGSYEYHKSVIDNARKSEELYPGRPLAIALDTKGPEIRTGTTTNDVDYPIPPNHEMIFTTDDKYAKACDDKIMYVDYKNITKVISAGRIIYVDDGVLSFQVLEVVDDKTLKVKALNAGKICSHKGVNLPGTDVDLPALSEKDKEDLRFGVKNGVHMVFASFIRTANDVLTIREVLGEQGKDVKIIVKIENQQGVNNFDEILKVTDGVMVARGDLGIEIPAPEVLAVQKKLIAKSNLAGKPVICATQMLESMTYNPRPTRAEVSDVGNAILDGADCVMLSGETAKGNYPINAVTTMAETAVIAEQAIAYLPNYDDMRNCTPKPTSTTETVAASAVAAVFEQKAKAIIVLSTSGTTPRLVSKYRPNCPIILVTRCPRAARFSHLYRGVFPFVFEKEPVSDWTDDVEARINFGIEKAKEFGILKKGDTYVSIQGFKAGAGHSNTLQVSTV

Variants of: B1
Assay: pull-down (co-IP with anti-HA beads, anti-Tsa1 immunoblot, band quantification)
Details: +DTT, lane 9, lysate 67 μg/lane and 111 μg/lane for HA-Pyk1 and Tsa1, parent: 1

Row | ratio to parent | Variant
1 | 0.5 | chain 1 MVAQVQKQAPTFKKTAVVDGVFDEVSLDKYKGKYVVLAFIPLAFTFVTPTEIIAFSEAAKKFEEQGAQVLFASTDSEYSLLAWTNIPRKEGGLGPINIPLLADTNHSLSRDYGVLIEEEGVALRGLFIIDPKGVIRHITINDLPVGRNVDEALRLVEAFQWTDKNGTVLPTNWTPGAATIKPTVEDSKEYFEAANK [chain 1 C48T C171T]

Same assay, conditions: +DTT, lane 9, lysate 67 μg/lane and 111 μg/lane for HA-Pyk1 and Tsa1, parent: 3.1

Row | screen value (% of Total Tsa1) | Variant
2 | 1.3 | chain 1 MVAQVQKQAPTFKKTAVVDGVFDEVSLDKYKGKYVVLAFIPLAFTFVTPTEIIAFSEAAKKFEEQGAQVLFASTDSEYSLLAWTNIPRKEGGLGPINIPLLADTNHSLSRDYGVLIEEEGVALRGLFIIDPKGVIRHITINDLPVGRNVDEALRLVEAFQWTDKNGTVLPTNWTPGAATIKPTVEDSKEYFEAANK [chain 1 C48T C171T]
